ChEMBL document CHEMBL1143427, “Interactions of ceftobiprole with beta-lactamases from molecular classes A to D” (Antimicrob Agents Chemother, 2007)

How the values were obtained:
[1] = substrate: CO/N=C(\C(=O)N[C@@H]1C(=O)N2C(C(=O)[O-])=C(C[N+]3(C)CCCC3)CS[C@H]12)c1csc(N)n1; test: (§1) Ratio of Kcat to Km of Pseudomonas aeruginosa AmpC assessed as drug hydrolysis by spectrophotometry
[2] = substrate: CC1(C)S[C@@H]2[C@H](NC(=O)Cc3ccccc3)C(=O)N2[C@H]1C(=O)O; test: as §1
[3] = substrate: Nc1nc(/C(=N/O)C(=O)N[C@@H]2C(=O)N3C(C(=O)O)=C(/C=C4\CCN([C@@H]5CCNC5)C4=O)CS[C@H]23)ns1; test: as §1
[4] = substrate: O=C(Cc1cccs1)N[C@@H]1C(=O)N2C(C(=O)[O-])=C(C[n+]3ccccc3)CS[C@H]12; test: as §1
[5] = substrate: CC(C)(O/N=C(\C(=O)N[C@@H]1C(=O)N2C(C(=O)[O-])=C(C[n+]3ccccc3)CS[C@H]12)c1csc(N)n1)C(=O)O; test: (§2) Ratio of Kcat to Km of Pseudomonas aeruginosa 4352 AmpC assessed as drug hydrolysis by spectrophotometry
[6] = substrate: CO/N=C(\C(=O)N[C@@H]1C(=O)N2C(C(=O)[O-])=C(C[N+]3(C)CCCC3)CS[C@H]12)c1csc(N)n1; test: as §2
[7] = substrate: CC1(C)S[C@@H]2[C@H](NC(=O)Cc3ccccc3)C(=O)N2[C@H]1C(=O)O; test: as §2
[8] = substrate: Nc1nc(/C(=N/O)C(=O)N[C@@H]2C(=O)N3C(C(=O)O)=C(/C=C4\CCN([C@@H]5CCNC5)C4=O)CS[C@H]23)ns1; test: as §2
[9] = substrate: O=C(Cc1cccs1)N[C@@H]1C(=O)N2C(C(=O)O)=C(/C=C/c3ccc([N+](=O)[O-])cc3[N+](=O)[O-])CS[C@H]12; test: as §2
[10] = substrate: O=C(Cc1cccs1)N[C@@H]1C(=O)N2C(C(=O)[O-])=C(C[n+]3ccccc3)CS[C@H]12; test: as §2
[11] = substrate: CC(C)(O/N=C(\C(=O)N[C@@H]1C(=O)N2C(C(=O)[O-])=C(C[n+]3ccccc3)CS[C@H]12)c1csc(N)n1)C(=O)O; test: (§3) Activity of Pseudomonas aeruginosa MK-1184 AmpC assessed as drug hydrolysis by spectrophotometry
[12] = substrate: CO/N=C(\C(=O)N[C@@H]1C(=O)N2C(C(=O)[O-])=C(C[N+]3(C)CCCC3)CS[C@H]12)c1csc(N)n1; test: as §3
[13] = substrate: CC1(C)S[C@@H]2[C@H](NC(=O)Cc3ccccc3)C(=O)N2[C@H]1C(=O)O; test: as §3
[14] = substrate: Nc1nc(/C(=N/O)C(=O)N[C@@H]2C(=O)N3C(C(=O)O)=C(/C=C4\CCN([C@@H]5CCNC5)C4=O)CS[C@H]23)ns1; test: as §3
[15] = substrate: O=C(Cc1cccs1)N[C@@H]1C(=O)N2C(C(=O)[O-])=C(C[n+]3ccccc3)CS[C@H]12; test: as §3
[16] = substrate: CC(C)(O/N=C(\C(=O)N[C@@H]1C(=O)N2C(C(=O)[O-])=C(C[n+]3ccccc3)CS[C@H]12)c1csc(N)n1)C(=O)O; test: (§4) Activity of Pseudomonas aeruginosa AmpC assessed as drug hydrolysis by spectrophotometry
[17] = substrate: CO/N=C(\C(=O)N[C@@H]1C(=O)N2C(C(=O)[O-])=C(C[N+]3(C)CCCC3)CS[C@H]12)c1csc(N)n1; test: as §4
[18] = substrate: CC1(C)S[C@@H]2[C@H](NC(=O)Cc3ccccc3)C(=O)N2[C@H]1C(=O)O; test: as §4
[19] = substrate: Nc1nc(/C(=N/O)C(=O)N[C@@H]2C(=O)N3C(C(=O)O)=C(/C=C4\CCN([C@@H]5CCNC5)C4=O)CS[C@H]23)ns1; test: as §4
[20] = substrate: O=C(Cc1cccs1)N[C@@H]1C(=O)N2C(C(=O)[O-])=C(C[n+]3ccccc3)CS[C@H]12; test: as §4
[21] = substrate: CC(C)(O/N=C(\C(=O)N[C@@H]1C(=O)N2C(C(=O)[O-])=C(C[n+]3ccccc3)CS[C@H]12)c1csc(N)n1)C(=O)O; test: (§5) Activity of Pseudomonas aeruginosa 18SH AmpC assessed as drug hydrolysis by spectrophotometry
[22] = substrate: CO/N=C(\C(=O)N[C@@H]1C(=O)N2C(C(=O)[O-])=C(C[N+]3(C)CCCC3)CS[C@H]12)c1csc(N)n1; test: as §5
[23] = substrate: CC1(C)S[C@@H]2[C@H](NC(=O)Cc3ccccc3)C(=O)N2[C@H]1C(=O)O; test: as §5
[24] = substrate: Nc1nc(/C(=N/O)C(=O)N[C@@H]2C(=O)N3C(C(=O)O)=C(/C=C4\CCN([C@@H]5CCNC5)C4=O)CS[C@H]23)ns1; test: as §5
[25] = substrate: O=C(Cc1cccs1)N[C@@H]1C(=O)N2C(C(=O)[O-])=C(C[n+]3ccccc3)CS[C@H]12; test: as §5
[26] = substrate: CO/N=C(\C(=O)N[C@@H]1C(=O)N2C(C(=O)[O-])=C(C[N+]3(C)CCCC3)CS[C@H]12)c1csc(N)n1; test: (§6) Ratio of Kcat to Km of Pseudomonas aeruginosa 18SH AmpC assessed as drug hydrolysis by spectrophotometry
[27] = substrate: CC1(C)S[C@@H]2[C@H](NC(=O)Cc3ccccc3)C(=O)N2[C@H]1C(=O)O; test: as §6
[28] = substrate: Nc1nc(/C(=N/O)C(=O)N[C@@H]2C(=O)N3C(C(=O)O)=C(/C=C4\CCN([C@@H]5CCNC5)C4=O)CS[C@H]23)ns1; test: as §6
[29] = substrate: O=C(Cc1cccs1)N[C@@H]1C(=O)N2C(C(=O)[O-])=C(C[n+]3ccccc3)CS[C@H]12; test: as §6
[30] = substrate: CC(C)(O/N=C(\C(=O)N[C@@H]1C(=O)N2C(C(=O)[O-])=C(C[n+]3ccccc3)CS[C@H]12)c1csc(N)n1)C(=O)O; test: (§7) Activity of Pseudomonas aeruginosa 4352 AmpC assessed as drug hydrolysis by spectrophotometry
[31] = substrate: CO/N=C(\C(=O)N[C@@H]1C(=O)N2C(C(=O)[O-])=C(C[N+]3(C)CCCC3)CS[C@H]12)c1csc(N)n1; test: as §7
[32] = substrate: CC1(C)S[C@@H]2[C@H](NC(=O)Cc3ccccc3)C(=O)N2[C@H]1C(=O)O; test: as §7
[33] = substrate: Nc1nc(/C(=N/O)C(=O)N[C@@H]2C(=O)N3C(C(=O)O)=C(/C=C4\CCN([C@@H]5CCNC5)C4=O)CS[C@H]23)ns1; test: as §7
[34] = substrate: O=C(Cc1cccs1)N[C@@H]1C(=O)N2C(C(=O)O)=C(/C=C/c3ccc([N+](=O)[O-])cc3[N+](=O)[O-])CS[C@H]12; test: as §7
[35] = substrate: O=C(Cc1cccs1)N[C@@H]1C(=O)N2C(C(=O)[O-])=C(C[n+]3ccccc3)CS[C@H]12; test: as §7
[36] = substrate: CC(C)(O/N=C(\C(=O)N[C@@H]1C(=O)N2C(C(=O)[O-])=C(C[n+]3ccccc3)CS[C@H]12)c1csc(N)n1)C(=O)O; test: (§8) Ratio of Kcat to Km of Pseudomonas aeruginosa MK-1184 AmpC assessed as drug hydrolysis by spectrophotometry
[37] = substrate: CO/N=C(\C(=O)N[C@@H]1C(=O)N2C(C(=O)[O-])=C(C[N+]3(C)CCCC3)CS[C@H]12)c1csc(N)n1; test: as §8
[38] = substrate: CC1(C)S[C@@H]2[C@H](NC(=O)Cc3ccccc3)C(=O)N2[C@H]1C(=O)O; test: as §8
[39] = substrate: Nc1nc(/C(=N/O)C(=O)N[C@@H]2C(=O)N3C(C(=O)O)=C(/C=C4\CCN([C@@H]5CCNC5)C4=O)CS[C@H]23)ns1; test: as §8
[40] = substrate: O=C(Cc1cccs1)N[C@@H]1C(=O)N2C(C(=O)[O-])=C(C[n+]3ccccc3)CS[C@H]12; test: as §8
[41] = substrate: CC(C)(O/N=C(\C(=O)N[C@@H]1C(=O)N2C(C(=O)[O-])=C(C[n+]3ccccc3)CS[C@H]12)c1csc(N)n1)C(=O)O; test: (§9) Ratio of Kcat to Km of Escherichia coli TEM1 assessed as drug hydrolysis by spectrophotometry
[42] = substrate: CC1(C)S[C@@H]2[C@H](NC(=O)Cc3ccccc3)C(=O)N2[C@H]1C(=O)O; test: as §9
[43] = substrate: Nc1nc(/C(=N/O)C(=O)N[C@@H]2C(=O)N3C(C(=O)O)=C(/C=C4\CCN([C@@H]5CCNC5)C4=O)CS[C@H]23)ns1; test: as §9
[44] = substrate: CC(C)(O/N=C(\C(=O)N[C@@H]1C(=O)N2C(C(=O)[O-])=C(C[n+]3ccccc3)CS[C@H]12)c1csc(N)n1)C(=O)O; test: (§10) Activity of Escherichia coli TEM1 assessed as drug hydrolysis by spectrophotometry
[45] = substrate: CC1(C)S[C@@H]2[C@H](NC(=O)Cc3ccccc3)C(=O)N2[C@H]1C(=O)O; test: as §10
[46] = substrate: Nc1nc(/C(=N/O)C(=O)N[C@@H]2C(=O)N3C(C(=O)O)=C(/C=C4\CCN([C@@H]5CCNC5)C4=O)CS[C@H]23)ns1; test: as §10
[47] = substrate: O=C(Cc1cccs1)N[C@@H]1C(=O)N2C(C(=O)[O-])=C(C[n+]3ccccc3)CS[C@H]12; test: as §10

B1: Beta-lactamase (Pseudomonas aeruginosa (strain ATCC 15692 / PAO1 / 1C / PRS 101 / LMG12228)), P24735 (protein)
chain: MRDTRFPCLCGIAASTLLFATTPAIAGEAPADRLKALVDAAVQPVMKANDIPGLAVAISLKGEPHYFSYGLASKEDGRRVTPETLFEIGSVSKTFTATLAGYALTQDKMRLDDRASQHWPALQGSRFDGISLLDLATYTAGGLPLQFPDSVQKDQAQIRDYYRQWQPTYAPGSQRLYSNPSIGLFGYLAARSLGQPFERLMEQQVFPALGLEQTHLDVPEAALAQYAQGYGKDDRPLRVGPGPLDAEGYGVKTSAADLLRFVDANLHPERLDRPWAQALDATHRGYYKVGDMTQGLGWEAYDWPISLKRLQAGNSTPMALQPHRIARLPAPQALEGQRLLNKTGSTNGFGAYVAFVPGRDLGLVILANRNYPNAERVKIAYAILSGLEQQGKVPLKR
[1]
  kcat/Km: 1300 M⁻¹ s⁻¹
[2]
  kcat/Km: 1.1e+07 M⁻¹ s⁻¹
[3]
  kcat/Km: 7.9e+06 M⁻¹ s⁻¹
[4]
  kcat/Km: 80000 M⁻¹ s⁻¹
[5]
  kcat/Km: < 1300 M⁻¹ s⁻¹
[6]
  kcat/Km: < 33 M⁻¹ s⁻¹
[7]
  kcat/Km: 3.4e+06 M⁻¹ s⁻¹
[8]
  kcat/Km: < 440 M⁻¹ s⁻¹
[9]
  kcat/Km: 5.7e+06 M⁻¹ s⁻¹
[10]
  kcat/Km: 310000 M⁻¹ s⁻¹
[11]
  Km: 12 µM
  kcat: 0.69 s⁻¹
[12]
  Km: 38 µM
  kcat: 0.33 s⁻¹
[13]
  Km: 3 µM
  kcat: 20 s⁻¹
[14]
  Km: 42 µM
  kcat: 0.45 s⁻¹
[15]
  Km: 21 µM
  kcat: 22 s⁻¹
[16]
  kcat: < 0.0095 s⁻¹
[17]
  Km: 230 µM
  kcat: 3.1 s⁻¹
[18]
  Km: 7.9 µM
  kcat: 86 s⁻¹
[19]
  Km: 29 µM
  kcat: 230 s⁻¹
[20]
  Km: 200 µM
  kcat: 16 s⁻¹
[21]
  Km: 20 µM
  kcat: < 0.1 s⁻¹
[22]
  Km: 210 µM
  kcat: < 0.1 s⁻¹
[23]
  Km: 40 µM
  kcat: 45 s⁻¹
[24]
  Km: 280 µM
  kcat: 3.6 s⁻¹
[25]
  Km: 71 µM
  kcat: 130 s⁻¹
[26]
  kcat/Km: 9000 M⁻¹ s⁻¹
[27]
  kcat/Km: 1.1e+06 M⁻¹ s⁻¹
[28]
  kcat/Km: 13000 M⁻¹ s⁻¹
[29]
  kcat/Km: 1.8e+06 M⁻¹ s⁻¹
[30]
  Km: 8 µM
  kcat: < 0.01 s⁻¹
[31]
  Km: 370 µM
  kcat: < 0.012 s⁻¹
[32]
  Km: 11 µM
  kcat: 37 s⁻¹
[33]
  Km: 55 µM
  kcat: < 0.024 s⁻¹
[34]
  Km: 12 µM
  kcat: 68 s⁻¹
[35]
  Km: 320 µM
  kcat: 100 s⁻¹
[36]
  kcat/Km: 58000 M⁻¹ s⁻¹
[37]
  kcat/Km: 8600 M⁻¹ s⁻¹
[38]
  kcat/Km: 6.7e+06 M⁻¹ s⁻¹
[39]
  kcat/Km: 11000 M⁻¹ s⁻¹
[40]
  kcat/Km: 1.1e+06 M⁻¹ s⁻¹

B2: Beta-lactamase TEM (Escherichia coli), P62593 (protein)
chain: MSIQHFRVALIPFFAAFCLPVFAHPETLVKVKDAEDQLGARVGYIELDLNSGKILESFRPEERFPMMSTFKVLLCGAVLSRVDAGQEQLGRRIHYSQNDLVEYSPVTEKHLTDGMTVRELCSAAITMSDNTAANLLLTTIGGPKELTAFLHNMGDHVTRLDRWEPELNEAIPNDERDTTMPAAMATTLRKLLTGELLTLASRQQLIDWMEADKVAGPLLRSALPAGWFIADKSGAGERGSRGIIAALGPDGKPSRIVVIYTTGSQATMDERNRQIAEIGASLIKHW
[41]
  kcat/Km: 12 M⁻¹ s⁻¹
[42]
  kcat/Km: 1e+08 M⁻¹ s⁻¹
[43]
  kcat/Km: 29000 M⁻¹ s⁻¹
[44]
  Km: 200 µM
  kcat: 0.0023 s⁻¹
[45]
  Km: 12 µM
  kcat: 1200 s⁻¹
[46]
  Km: 300 µM
  kcat: 8.8 s⁻¹
[47]
  Km: 560 µM
  kcat: 980 s⁻¹
